We go through two substances from patent CN114075285A.

The target of test [1] is CD38 antigen on the cell surface (Daudi cells; NCI-H929 cells) (human) (UniProt P28907). In words: cell-based or functional assay.
Test [2] has as its target CD38 (human), analyte in Biacore (human) (UniProt P28907). In words: SPR (Biacore 8K), antibody captured on Protein A chip, CD38 as analyte, 25℃.

As to Isotype control (antibody), in test [1], the ADCC reporter (Jurkat-Lucia-NFAT-CD16 + NCI-H929), EC50(μg/mL) came to 0.375 µg/mL and the ADCC reporter (Jurkat-Lucia-NFAT-CD16 + NCI-H929), Top MFI turned out to be 2120.
With RB0021 PC(Daratumumab) (antibody), in test [1], the ADCC reporter (Jurkat-Lucia-NFAT-CD16 + NCI-H929), EC50(μg/mL) is 0.017 µg/mL and the ADCC reporter (Jurkat-Lucia-NFAT-CD16 + NCI-H929), Top MFI worked out at 57200. Also, the Kd (usually the equilibrium constant for the complex coming apart) in test [2] was found to be 88.6 nM.
